Here are results for seven molecules from patent US20110318339A1 (FABRUS, published 2011).

In test [1] the target is T1, recombinant human DLL4 (Cat# 1506-D4/CF, R&D Systems) (human, UniProt Q9NR61 27-529).
T1 construct: Bought protein; also called hDLL4; rHuman DLL4
The test can be described thus: ELISA, DLL4 coated, Fab 25 nM. As for the experimental part: (§1) The plate was blocked by adding 1% BSA in Tris-buffered Saline Tween (TBST) and incubating for 1 hour at room temperature followed by washing 2 times with 150 μl TBST. A Fab antibody was serially diluted in 1% BSA in PBS. A 50 μl aliquot of each serial dilution was added, in triplicate, to each well and the plate was incubated for 1 hour at room temperature followed by washing 2 times with TBST. 50 μl of either goat anti-human kappa HRP conjugated secondary antibody (Cat # A7164-1 mL, Sigma-Aldrich) or goat anti-human lambda HRP conjugated secondary antibody (Cat # L1645-1 ml, Sigma-Aldrich), diluted 1:1000 in 1% BSA in PBS, was added to each well and the plate was incubated for 30 minutes at room temperature followed by washing 3 times with 200 μl TBST. Finally, 50 μl TMB one-component reagent (Cat # TMBW-1000-01, BioFax) was added and allowed to develop for 2 minutes at room temperature. The reaction was immediately halted by the addition of 50 μl 0.5M H₂SO₄ and the absorbance at 450 nm was measured using an ELISA plate reader.
On the technique in general: An ELISA detects its analyte on a solid surface through an enzyme-linked reagent.

Test [2] deals with T1, recombinant human DLL4 (Cat# …). Put plainly: ELISA, DLL4 coated, Fab 100 nM. The procedure:
(§2) In this example, an ELISA binding assay was used to assess the dose-dependent binding of Fab antibodies to recombinant human DLL4 and recombinant mouse DLL4.
as §1

For test [3] the target is unchanged. The test can be described thus: ELISA, DLL4 coated, Fab 50 nM. As for the experimental part:
as §2, §1

For test [4] the target is unchanged. Put plainly: ELISA, DLL4 coated, Fab 12.5 nM. As for the experimental part:
as §2, §1

B1: Fab VH5-51_IGHD5-18*01>3_IGHJ4*01 G100K/G104T G24T/S28R/G35V & V3-4_IGLJ1*01 V91L/S96P S52Q (Fab, V domains shown)
VH: EVQLVQSGAEVKKPGESLKISCKTSGYRFTSYWIVWVRQMPGKGLEWMGIIYPGDSDTRYSPSFQGQVTISADKSISTAYLQWSSLKASDTAMYYCARRKYSYTYDYFDYWGQGTLVTVSS
VL: QTVVTQEPSFSVSPGGTVTLTCGLSSGSVSTSYYPSWYQQTPGQAPRTLIYQTNTRSSGVPDRFSGSILGNKAALTITGAQADDESDYYCLLYMGPGISYVFGTGTKVTVL
notes: Fab made in E. coli: VH on CH1 with His6 and Flag tags (Plasmid A), VL on lambda CL (Plasmid E); also called H: KT TRV & L: LP S52Q
For the molecule B1, the “ELISA absorbance at 450 nm” value in test [1] turned out to be 0.67 A450; in test [2] it was 0.96 A450; in test [3], 0.81 A450; in test [4], 0.47 A450.

B2: Fab VH5-51_IGHD5-18*01>3_IGHJ4*01 G100K/G104T G24T/S28R/G35V & V3-4_IGLJ1*01 V91L/S96P S52I (Fab, V domains shown)
VH: EVQLVQSGAEVKKPGESLKISCKTSGYRFTSYWIVWVRQMPGKGLEWMGIIYPGDSDTRYSPSFQGQVTISADKSISTAYLQWSSLKASDTAMYYCARRKYSYTYDYFDYWGQGTLVTVSS
VL: QTVVTQEPSFSVSPGGTVTLTCGLSSGSVSTSYYPSWYQQTPGQAPRTLIYITNTRSSGVPDRFSGSILGNKAALTITGAQADDESDYYCLLYMGPGISYVFGTGTKVTVL
notes: Fab made in E. coli: VH on CH1 with His6 and Flag tags (Plasmid A), VL on lambda CL (Plasmid E); also called H: KT TRV & L: LP S52I
Consider B2, for which the “ELISA absorbance at 450 nm” value in test [1] was determined as 0.6 A450; in test [2] it was 1.04 A450; in test [3] it was 0.82 A450; in test [4], 0.4 A450.

B3: Fab VH5-51_IGHD5-18*01>3_IGHJ4*01 G100K/G104T G24T/S28R/G35V & V3-4_IGLJ1*01 V91L/S96P S52T (Fab, V domains shown)
VH: EVQLVQSGAEVKKPGESLKISCKTSGYRFTSYWIVWVRQMPGKGLEWMGIIYPGDSDTRYSPSFQGQVTISADKSISTAYLQWSSLKASDTAMYYCARRKYSYTYDYFDYWGQGTLVTVSS
VL: QTVVTQEPSFSVSPGGTVTLTCGLSSGSVSTSYYPSWYQQTPGQAPRTLIYTTNTRSSGVPDRFSGSILGNKAALTITGAQADDESDYYCLLYMGPGISYVFGTGTKVTVL
notes: Fab made in E. coli: VH on CH1 with His6 and Flag tags (Plasmid A), VL on lambda CL (Plasmid E); also called H: KT TRV & L: LP S52T
As for B3, the “ELISA absorbance at 450 nm” value in test [1] was 0.62 A450; in test [2], 0.99 A450; in test [3], 0.79 A450; in test [4], 0.41 A450.

B4: Fab VH5-51_IGHD5-18*01>3_IGHJ4*01 G100K/G104T G24T/S28R/G35V & V3-4_IGLJ1*01 V91L/S96P S52V (Fab, V domains shown)
VH: EVQLVQSGAEVKKPGESLKISCKTSGYRFTSYWIVWVRQMPGKGLEWMGIIYPGDSDTRYSPSFQGQVTISADKSISTAYLQWSSLKASDTAMYYCARRKYSYTYDYFDYWGQGTLVTVSS
VL: QTVVTQEPSFSVSPGGTVTLTCGLSSGSVSTSYYPSWYQQTPGQAPRTLIYVTNTRSSGVPDRFSGSILGNKAALTITGAQADDESDYYCLLYMGPGISYVFGTGTKVTVL
notes: Fab made in E. coli: VH on CH1 with His6 and Flag tags (Plasmid A), VL on lambda CL (Plasmid E); also called H: KT TRV & L: LP S52V
On to B4, for which the “ELISA absorbance at 450 nm” value was found to be 0.6 A450 in test [1], 0.95 A450 in test [2], 0.74 A450 in test [3] and 0.43 A450 in test [4].

B5: Fab VH5-51_IGHD5-18*01>3_IGHJ4*01 G100K/G104T G24T/S28R/G35V & V3-4_IGLJ1*01 V91L/S96P S52L (Fab, V domains shown)
VH: EVQLVQSGAEVKKPGESLKISCKTSGYRFTSYWIVWVRQMPGKGLEWMGIIYPGDSDTRYSPSFQGQVTISADKSISTAYLQWSSLKASDTAMYYCARRKYSYTYDYFDYWGQGTLVTVSS
VL: QTVVTQEPSFSVSPGGTVTLTCGLSSGSVSTSYYPSWYQQTPGQAPRTLIYLTNTRSSGVPDRFSGSILGNKAALTITGAQADDESDYYCLLYMGPGISYVFGTGTKVTVL
notes: Fab made in E. coli: VH on CH1 with His6 and Flag tags (Plasmid A), VL on lambda CL (Plasmid E); also called H: KT TRV & L: LP S52L
Regarding B5, the “ELISA absorbance at 450 nm” value in test [1] is 0.58 A450; in test [2], 1.02 A450; in test [3] it was 0.78 A450; in test [4], 0.43 A450.

B6: Fab VH5-51_IGHD5-18*01>3_IGHJ4*01 G100K/G104T G24T/S28R/G35V & V3-4_IGLJ1*01 V91L/S96P S52P (Fab, V domains shown)
VH: EVQLVQSGAEVKKPGESLKISCKTSGYRFTSYWIVWVRQMPGKGLEWMGIIYPGDSDTRYSPSFQGQVTISADKSISTAYLQWSSLKASDTAMYYCARRKYSYTYDYFDYWGQGTLVTVSS
VL: QTVVTQEPSFSVSPGGTVTLTCGLSSGSVSTSYYPSWYQQTPGQAPRTLIYPTNTRSSGVPDRFSGSILGNKAALTITGAQADDESDYYCLLYMGPGISYVFGTGTKVTVL
notes: Fab made in E. coli: VH on CH1 with His6 and Flag tags (Plasmid A), VL on lambda CL (Plasmid E); also called H: KT TRV & L: LP S52P
B6: the “ELISA absorbance at 450 nm” value in test [1] came out at 0.59 A450; in test [2] it was 1 A450; in test [3], 0.79 A450; in test [4], 0.43 A450.

B7: Fab VH5-51_IGHD5-18*01>3_IGHJ4*01 G100K/G104T G24T/S28R/G35V & V3-4_IGLJ1*01 V91L/S96P S52N (Fab, V domains shown)
VH: EVQLVQSGAEVKKPGESLKISCKTSGYRFTSYWIVWVRQMPGKGLEWMGIIYPGDSDTRYSPSFQGQVTISADKSISTAYLQWSSLKASDTAMYYCARRKYSYTYDYFDYWGQGTLVTVSS
VL: QTVVTQEPSFSVSPGGTVTLTCGLSSGSVSTSYYPSWYQQTPGQAPRTLIYNTNTRSSGVPDRFSGSILGNKAALTITGAQADDESDYYCLLYMGPGISYVFGTGTKVTVL
notes: Fab made in E. coli: VH on CH1 with His6 and Flag tags (Plasmid A), VL on lambda CL (Plasmid E); also called H: KT TRV & L: LP S52N
With B7, the “ELISA absorbance at 450 nm” value in test [1] stood at 0.86 A450; in test [2] it was 1.05 A450; in test [3] it was 0.9 A450; in test [4] it was 0.65 A450.
